Measured values as given in article PMC13189363.
“And” between values parts separate entries of the source, which are not always exact repeats. Equal entries are not always repeated.

Key:
[1] = target: HerA from Bacillus ap. HMH5848 (Bacillus ap. HMH5848); experiment: cryo-EM structure
[2] = target: DUF4297 from Bacillus ap. HMH5848 (Bacillus ap. HMH5848); experiment: mass photometry
[3] = target: DUF4297 from Bacillus ap. HMH5848 (Bacillus ap. HMH5848); experiment: cryo-EM structure

| Substance | stoichiometry N [1] | stoichiometry N [2] | stoichiometry N [3] |
| --- | --- | --- | --- |
| HerA from Bacillus ap. HMH5848 (enzyme) | 6 | – | – |
| DUF4297 from Bacillus ap. HMH5848 (enzyme) | – | 6 and 12 and 14 | 12 and 4 and 6 |
